The text below walks through data of paper PMC10849712 (bioRxiv, 2024).

Assay [1] has as its target native IT4VAR18 PfEMP1 (CIDRα1.6) on P. falciparum-infected erythrocytes (Plasmodium falciparum, clone IT4 …, UniProt A3R6S2, strain). In words: flow cytometry on cells. For orientation: Flow cytometry measures light scatter and fluorescence of single cells or particles in a stream.
Assay [2] addresses native IT4VAR19 PfEMP1 (CIDRα1.1) on P. falciparum-infected erythrocytes (Plasmodium falciparum, clone IT4 …, UniProt A3R6S3, strain). Description: flow cytometry on cells.
In assay [3] the target is native HB3VAR03 PfEMP1 (CIDRα1.4) on P. falciparum-infected erythrocytes (Plasmodium falciparum HB3 (HB3VAR03), UniProt A0A0L7KL67, strain). Description: flow cytometry on cells.
Assay [4] addresses T1, three-domain protein of IT4VAR22 PfEMP1 (NTSA-DBLα-CIDRα1.7-DBLβ) (Plasmodium falciparum IT4 (IT4VAR22), strain).
T1 chain: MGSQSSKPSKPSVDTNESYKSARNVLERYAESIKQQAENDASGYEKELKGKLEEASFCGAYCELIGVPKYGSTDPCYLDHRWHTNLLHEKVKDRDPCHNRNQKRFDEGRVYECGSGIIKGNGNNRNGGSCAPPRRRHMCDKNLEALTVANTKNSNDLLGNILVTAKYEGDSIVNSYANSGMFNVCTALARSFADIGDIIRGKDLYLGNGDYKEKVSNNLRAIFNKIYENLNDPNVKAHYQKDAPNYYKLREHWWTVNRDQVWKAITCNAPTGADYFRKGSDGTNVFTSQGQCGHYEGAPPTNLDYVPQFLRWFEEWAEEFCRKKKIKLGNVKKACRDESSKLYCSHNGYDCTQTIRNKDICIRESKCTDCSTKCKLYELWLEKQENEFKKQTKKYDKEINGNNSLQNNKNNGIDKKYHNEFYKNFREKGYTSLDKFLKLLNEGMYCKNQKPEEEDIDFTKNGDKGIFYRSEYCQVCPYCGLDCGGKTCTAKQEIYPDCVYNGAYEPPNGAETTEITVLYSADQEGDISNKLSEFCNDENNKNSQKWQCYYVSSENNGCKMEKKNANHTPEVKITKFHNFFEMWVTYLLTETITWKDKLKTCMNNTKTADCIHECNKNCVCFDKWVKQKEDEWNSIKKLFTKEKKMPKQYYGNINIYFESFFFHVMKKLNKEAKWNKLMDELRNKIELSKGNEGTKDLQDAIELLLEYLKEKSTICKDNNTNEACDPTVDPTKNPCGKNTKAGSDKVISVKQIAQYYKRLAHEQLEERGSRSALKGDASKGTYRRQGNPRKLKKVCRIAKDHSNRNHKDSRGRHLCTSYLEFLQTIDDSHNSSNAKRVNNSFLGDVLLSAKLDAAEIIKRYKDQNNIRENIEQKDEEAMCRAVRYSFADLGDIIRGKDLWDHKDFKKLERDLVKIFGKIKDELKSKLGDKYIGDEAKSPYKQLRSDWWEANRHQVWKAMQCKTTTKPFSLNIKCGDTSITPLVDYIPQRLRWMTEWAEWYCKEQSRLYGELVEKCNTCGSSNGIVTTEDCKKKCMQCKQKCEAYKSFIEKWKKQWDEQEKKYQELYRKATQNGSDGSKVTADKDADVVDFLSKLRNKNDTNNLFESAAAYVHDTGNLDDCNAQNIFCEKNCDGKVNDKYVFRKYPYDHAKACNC
Description: cryo-EM structure.

Assay [5] has as its target T2, three-domain protein of HB3VAR03 PfEMP1 (NTS-DBLα-CIDRα1.4-DBLβ) (Plasmodium falciparum HB3 (HB3VAR03), strain).
T2 chain: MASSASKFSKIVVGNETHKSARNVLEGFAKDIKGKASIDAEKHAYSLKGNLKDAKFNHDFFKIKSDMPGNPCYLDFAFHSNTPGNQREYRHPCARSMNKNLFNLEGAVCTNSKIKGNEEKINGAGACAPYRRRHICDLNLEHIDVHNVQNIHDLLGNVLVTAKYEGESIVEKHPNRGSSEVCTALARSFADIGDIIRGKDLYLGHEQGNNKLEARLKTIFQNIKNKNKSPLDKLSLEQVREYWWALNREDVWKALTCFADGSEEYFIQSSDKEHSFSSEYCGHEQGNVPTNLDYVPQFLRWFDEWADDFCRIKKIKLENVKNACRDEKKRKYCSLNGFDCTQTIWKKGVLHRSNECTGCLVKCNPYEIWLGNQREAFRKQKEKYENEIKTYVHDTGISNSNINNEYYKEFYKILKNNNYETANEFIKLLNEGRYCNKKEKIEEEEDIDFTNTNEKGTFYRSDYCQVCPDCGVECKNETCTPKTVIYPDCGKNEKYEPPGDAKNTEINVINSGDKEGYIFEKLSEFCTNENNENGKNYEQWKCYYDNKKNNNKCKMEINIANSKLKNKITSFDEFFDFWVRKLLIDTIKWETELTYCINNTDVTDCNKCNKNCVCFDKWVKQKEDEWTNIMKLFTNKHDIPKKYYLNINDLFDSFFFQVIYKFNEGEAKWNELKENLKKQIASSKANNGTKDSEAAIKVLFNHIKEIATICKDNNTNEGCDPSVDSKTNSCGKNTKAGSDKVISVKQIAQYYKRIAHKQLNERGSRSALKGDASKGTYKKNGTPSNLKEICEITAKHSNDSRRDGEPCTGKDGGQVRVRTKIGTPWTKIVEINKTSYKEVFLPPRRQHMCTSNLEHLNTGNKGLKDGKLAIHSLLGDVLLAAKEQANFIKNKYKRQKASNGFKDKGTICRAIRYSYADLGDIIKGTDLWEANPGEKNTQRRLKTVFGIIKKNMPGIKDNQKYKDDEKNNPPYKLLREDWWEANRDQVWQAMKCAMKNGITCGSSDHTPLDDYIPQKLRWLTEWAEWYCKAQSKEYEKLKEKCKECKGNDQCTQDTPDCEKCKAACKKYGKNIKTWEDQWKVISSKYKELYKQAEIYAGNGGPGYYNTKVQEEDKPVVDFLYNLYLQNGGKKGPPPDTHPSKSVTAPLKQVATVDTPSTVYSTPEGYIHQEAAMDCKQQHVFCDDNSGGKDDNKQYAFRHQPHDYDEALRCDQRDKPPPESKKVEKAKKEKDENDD
Description: cryo-EM structure.

Assay [6] has as its target T3, single CIDRα1.4 domain of HB3VAR03 PfEMP1 (crystallised with C7 Fab) (Plasmodium falciparum HB3 (HB3VAR03), strain).
T3 chain: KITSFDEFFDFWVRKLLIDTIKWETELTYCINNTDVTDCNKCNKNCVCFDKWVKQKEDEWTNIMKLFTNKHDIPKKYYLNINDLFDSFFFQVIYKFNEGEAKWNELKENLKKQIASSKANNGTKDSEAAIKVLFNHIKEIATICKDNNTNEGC
In words: crystal structure.

B1: mAb C74, recombinant IgG1 (antibody, V domains shown)
VH: EVQLVQSGGALVRPGGSLRLSCAASGFDFSDFEMNWVRQAPGKGLEWISYISKISAASFYADSVEGRFTISRDNTKNLLWLEMTSLRDEDTAVYYCARDLPGYLERVFDLWGQGTLVSVSS
VL: EIVLTQSPATLSLSPGEDATLSCRASQSVGSALAWYQHRPGQSPRLLIYDASTRATGIPARFSGSGSGTEFTLTVSSLTSEDFAVYYCQEYKNSVPPTWTFGQGTKVEIK
Turning to B1, the binding result in assay [1] was “binds”; in assay [2] it was “no binding (tested: 100 μg/mL)”; in assay [3], “binds”.

B2: C74 Fab (Fab, V domains shown)
VH: EVQLVQSGGALVRPGGSLRLSCAASGFDFSDFEMNWVRQAPGKGLEWISYISKISAASFYADSVEGRFTISRDNTKNLLWLEMTSLRDEDTAVYYCARDLPGYLERVFDLWGQGTLVSVSS
VL: EIVLTQSPATLSLSPGEDATLSCRASQSVGSALAWYQHRPGQSPRLLIYDASTRATGIPARFSGSGSGTEFTLTVSSLTSEDFAVYYCQEYKNSVPPTWTFGQGTKVEIK
As to B2, the binding result in assay [4] was “binds”.

B3: mAb C7, recombinant IgG1 (antibody, V domains shown)
VH: EVQLVESGGGLAQPGGSLRLSCAASGFTFRDHGMTWVRQVSGKGLEWLSYITAGSKMSYYSDSVRGRFTISRDNAKNSLYLQMNGLTDEDSAIYYCVKGGGNCPSDTCYPSGYFGLDVWGQGTTVTVSS
VL: QSELTQPPSMSVSPGQTAMITCSMNKYSYISWYQQRPGQSPALVIYQDTRRPSGIPERFSGSNSENTAILTITGTRDLDEADYFCQGWDSNVKAVLFGGGTKLTVL
Consider B3, for which the figures for the binding result in assay [1], in assay [2] and in assay [3] were “binds”, “no binding (tested: 100 μg/mL)” and “binds”, respectively.

B4: C7 Fab (Fab, V domains shown)
VH: EVQLVESGGGLAQPGGSLRLSCAASGFTFRDHGMTWVRQVSGKGLEWLSYITAGSKMSYYSDSVRGRFTISRDNAKNSLYLQMNGLTDEDSAIYYCVKGGGNCPSDTCYPSGYFGLDVWGQGTTVTVSS
VL: QSELTQPPSMSVSPGQTAMITCSMNKYSYISWYQQRPGQSPALVIYQDTRRPSGIPERFSGSNSENTAILTITGTRDLDEADYFCQGWDSNVKAVLFGGGTKLTVL
Take B4: the binding result in assay [5], in assay [4] and in assay [6] was “binds” each time.
